Assay: yeast display, Sf9 membrane polyspecificity reagent, FACS + sequencing; frameworks hold sequencing errors
How it was run: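 Genes from sorted yeast were amplified by colony PCR, read by MiSeq 2 × 250 sequencing and filtered on CDR length. These cells carried a synthetic nanobody library in Saccharomyces cerevisiae BJ5465 and were sorted by FACS into low and high (top ~1%) gates on anti-HA and streptavidin fluorescence. Polyreactivity is labelled according to the gate of origin.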
In the case of “QVQLVESGGGLVQAGGSLRLSCAASGRIYIIYAMGWYRQAPRKEREMVAAITRSGGRTFYADSVKGRFTISRDNAKNTVYLQMNSLKPEDTAVYYCAAAFGRVTKYGYRNQYGYWGQGTQVTVSS”, the “polyreactivity (PSR sort gate)” value is reported as “high polyreactivity”. With “QVQLVESGGGLVQAGGSLRLSCAASGSIFRRYAMGWYRQAPGKEREFVAAITRSGGGTYYADSVKGRFTISRDNAKNTVYLQMNSLKPEDTAVYYCAKDVFVQRSRYPEGDYWGQGTQVTVSS” the “polyreactivity (PSR sort gate)” value was “high polyreactivity”. With “QVQLVESGGGLVQAGGSLRLSCAASGRTFFGYAMGWYRQAPGKERELVAAISSRGDSTYYADSVKGRFTISRDNAKNTVYLQMNSLKPEDTAVYYCNAPVYTAAGYRYGTVRYGYWGQGTQVTVSS” the “polyreactivity (PSR sort gate)” value was “low polyreactivity”. With “QVQLVESGGGLVQAGGRLRLSCAASGITFWTYAMGWYRQAPGKERELVARISKSGARTFYADSVKGRFTISRDNAKNTVYLQMNSLKPEDTAVYYCAADRGPRPVTWYDYWGQGTQVTVSS” the “polyreactivity (PSR sort gate)” value was “high polyreactivity”. With “QVQIVESGGGLVQAGGSLRLSCAASGRTFPYYVMGWYRHAPGKERELVATISSSGRTYYADSVKGRFTISRDNAKNTVYLQMNSLKPEDTAVYYCAARFRWNQNYHFYYWGQGTQVTVSS” the “polyreactivity (PSR sort gate)” value was “high polyreactivity”. With “QVQLVESGGGLVQAGGSLRLSCAASGSTFWYYAMGWYRQAPGKERELDADITYSGVSTYYADSVKGRFTISRDNAKNTVYLQMNSLKPEDTAVYYCYADWGSVNGYAGYYYWGQGTQVTVSS” the “polyreactivity (PSR sort gate)” value was “low polyreactivity”. In the case of “QVQLVESGGGLVQAGGSLRLICASSGCTFGDYAMGWYRQEPGKERELVAAITIGGITTYADSVKGRFTISRDTAKYTVYLQRNSLKPEDTAVYYCAAAERGHWDDYWGQGTQVTVSS”, the “polyreactivity (PSR sort gate)” value is reported as “low polyreactivity”. In the case of “QVQLLESGGGLVQAGCSLRLSCAASGFIFSYAMGWYRQAPGKERQLVAAISKSGCRTYYADSVKGRFTISRDNAKNTVYLQMNSMKPEDTEVYYCAVRDLHLSNARYNFWGQGNQVTVSS”, the “polyreactivity (PSR sort gate)” value is reported as “high polyreactivity”. In the case of “QVQLVESGGGLVQAGGSLRLSCAASGAILDEYSMVWYRPAPGKAREFVAGIRTIGGSTYYADSVKGRFTISRENAKNTVYLQLNSLIPEDTADNYCAADGRTHEPQGWLGGYDYCGQGTQVTVSS”, the “polyreactivity (PSR sort gate)” value is reported as “low polyreactivity”. In the case of “QVQLEESAGGLVQAGGSLRLSCAASGSIFFFYAKGRYREAPGKERELVAAITGSGGSTYYADSVKGRFTISRVNAKNTVYLQMNSLKPEDTAVYDCAFRTSRQVYSYAGYESWGQGTHVTVSS”, the “polyreactivity (PSR sort gate)” value is reported as “low polyreactivity”. With “QVQIVESGGGLVQAGGSLRLSCAASGSILIPYAMGWYRQAPGKERELVAAISRTTRTYYADSVKGRFTISRDNAKNTVYLQMNCLKPEDTAVYYCAADRVYPYFRYGFWGQGTKVTVSS” the “polyreactivity (PSR sort gate)” value was “high polyreactivity”. In the case of “QVQLVESGGGLVQAGGSLRLSCAASGIIFPFYGMGWYRPAPGKERELVAAITSGDDTYYADSVKGRFTISRDNAKNTVYLQMNSLKPEDTAVYYCNKRVYIAGYWPQLYYIMDYWGQGTQVTVSS”, the “polyreactivity (PSR sort gate)” value is reported as “low polyreactivity”. In the case of “QVQLVESGGGLVQAGGSLRLSCAASGFIFILNAMGWYRQAPGKERELVAGISISGGSTYYADSVKGRFTISRDNAKNTVYLQMNSLKPEDTAVYYCAAPDGDTRVSDQAYDYWGQGTQVTVSS”, the “polyreactivity (PSR sort gate)” value is reported as “low polyreactivity”. With “QVQLVESGGGLVQAGGSLRLSCAASGRIFPFYVMGWYRQAPGKERELVATINWSGGSTYYADSVKGRFTISRDNAKNTVYLQMNSLKPEETAVYYCNAAPSDDYDYWGQGTQVTVSS” the “polyreactivity (PSR sort gate)” value was “low polyreactivity”. For “QVQLVESGGGLVQAGGSLRLSCAASGSIFGAYVMGWYRQAPGKERELVAAISRSGASTYYADSVKGRFTISRDNAKNTVYLQMNSLKPEDTAVYYCAARDRQRVSYCYWGQGTQVTVSS”, the “polyreactivity (PSR sort gate)” value was “high polyreactivity”. With “QVQLVESCGGLVQAGGSHRLSCAASGSTFKGYDMGWYRQAPGKERELVAAIDSGGSTYYADSVKGRFTISRDNAKNTVYLQMNSLKPEDTAVYYCAATGQDTYGLDVVDEYDYWGQGTQVTVSS” the “polyreactivity (PSR sort gate)” value was “low polyreactivity”. In the case of “QVQLVESGGGLVQAGGSLRLSCAASGSTFVYYTMGWYRQAPGKERELVATISSRGGSTYYADSVKGRFTISRDNAKNTVYLQMNSLKPEDTAVYYCAKRGPFYGNYDYWGQGTQVTVSS”, the “polyreactivity (PSR sort gate)” value is reported as “high polyreactivity”. For “QVQLVESGGGLVQAGGSLRLSCAASGSIFDIYAKGRSRQAPGKERELVAAISSGGSTTYADSVKGRFTISRDNAKNTVYFQMNCLTPEDTAVYYCATAYTPFAYLVTEMDYWGQGTQVTVLS”, the “polyreactivity (PSR sort gate)” value was “low polyreactivity”. For “QVQLVESVRGLVQAGGSLRLSCASSGSTFYGYTLGWYRQAPGKERELVAAISWSGGSTYYADSVKGRFTISRDNAKNTVYLQMNSLKPEDTAVFYCAARWGYSRRGYRGYDYWGQGTQVTVSS”, the “polyreactivity (PSR sort gate)” value was “high polyreactivity”. With “QVQLVESGGGLVQAGGSLRLSCAASGSIFGAYTMGGYRQAPGKERELVAAISIGGSTNYADSVKGRFTISRDYAKNTVYLQMNSLKPEDSAVYYCNAEPDLEDWWWAIGLYDYWGQGTQVTVSS” the “polyreactivity (PSR sort gate)” value was “high polyreactivity”. In the case of “QVQLVESGGGLVQAGGSLRLSCAASGRIFSRNTMGWYRQAPGKEREFVAAISQSGGRTYYADSVKGRFTISRDNAKNTVYLQMNSLKPEDTAVYYCAAPSQSRGYYYWGQGTQVTVSS”, the “polyreactivity (PSR sort gate)” value is reported as “high polyreactivity”. For “QVHLVESGGGLVQAGGSLRLSCAASGIIFTWYAMGMYRQAPGKEREMVAAISGSGDITYYADSVKGRFTISRDNAKNTVYLQMNSLKPEDTAVYYCAADPWTYWEDYDYWGQGTQVTVSS”, the “polyreactivity (PSR sort gate)” value was “low polyreactivity”. In the case of “QVQLVESGGGLVQAGGSLRLSCAASGHTFSISAMGWYRQAPGKERELVAAISLSGGSTDYADSVKGRFTISRDNAKNTVYLQMNSLKPEDTAVYYCAADVFTARRSYDYGGQGTQVTVSS”, the “polyreactivity (PSR sort gate)” value is reported as “low polyreactivity”. With “QVQLVESGGGLVQAGGSLRLSCAASGRIFFYNAMGWYRQAPGKERELVATIRGGGSTNYADSVKGRFTISRDNAKNTVYLQMNSLKPEDTAVYYCAARRGSYSVTEYWGQGTQVTVSS” the “polyreactivity (PSR sort gate)” value was “high polyreactivity”. For “QVQLVESGGGLVQAGGSLRLSCAASGSTLVGNAMGWYRQAPRKERELVATISKRSGSTYYADSVKGRFTISRDNAKNTVYLQMNSLKPEDSAVYYCNADDVRRRAYRIGSYWGYDYWGQGTQVTVSS”, the “polyreactivity (PSR sort gate)” value was “low polyreactivity”. For “QVHLVESGGGLVQAGGSLRLSCAASGSTFQRYAMGWDRQAPGKERELDAAITIRGTRTYYADSVKGRFTISRDNAKNTVYLQMNSLKPEDTAVYYCAATYYWYGHPSRRYDYWGQGTQVTVSS”, the “polyreactivity (PSR sort gate)” value was “high polyreactivity”. For “QDQLVESVGGLVQAGGSLRLSCAASGRIFWVNAMGWSRQAPGKERELVAAISWTSGSTYYADSVKGRFTISRDNAKNTVYLQMNSLKPEDTAVYYCNKVQSGEYDYWGQGTQVTVSS”, the “polyreactivity (PSR sort gate)” value was “high polyreactivity”. In the case of “QVQLLESGGGLVQAGGSLRLTCAASGSTFPDYAMGWYRQAPGKEREFVASITWSDGSTYYADSVKGRFTISRDNAKNSVYLQMNRLKQEDTAVYYCNADYVYYYIPVVYEYDYWGQGTQVTVSS”, the “polyreactivity (PSR sort gate)” value is reported as “high polyreactivity”. For “QVQLVESGGGLVQAGGSLRLSCAASGLNFYYYAMGWYRQAPGKERELVATISSRGGSTNYADSVKGRFTISRDNAKNTVYLQMNSLKPEDTAVYYCAADRRARVWTYRSYDYWGQGTQVTVSS”, the “polyreactivity (PSR sort gate)” value was “high polyreactivity”. With “QVQLVESGRGKVQAGGSLRLSCAASGFTFRGNAMGWYRQAPGKERELVAAITSSGGRTYYADSVKGRFTISRDNAKNTVYLQMNSLKPEDTAVYYCAARYAYPSRYYYWGQGTQVTVSS” the “polyreactivity (PSR sort gate)” value was “high polyreactivity”.
